The source of these data is paper PMC12796744.

Assay [1] has as its target GST-HMGN2 (UniProt P05204). In words: in vitro multiplex nucleosome-bead conjugate binding assay (titration). Particulars: GST-HMGN2 at 5 on the x axis (axis uM; legend nM); raw RFU before normalization; parent: est. 370000; read off a plot.
For assay [2], the target named is GST-HMGN1 (UniProt P05114). Described as above. As to conditions: GST-HMGN1 at 5 on the x axis (axis uM; legend nM); raw RFU before normalization; parent: est. 160000; read off a plot.
Assay [3] concerns the target GST-HMGN2 (UniProt P05204). The experiment in a line: in vitro multiplex nucleosome-bead conjugate binding assay. Particulars: 0.625 nM GST-HMGN2, three technical replicates, parent: est. 54000, read off a plot.
A further assay has as its target GST-HMGN2ΔC. The description is as above. As to conditions: for response (RFU (background subtracted)): 0.625 nM GST-HMGN2ΔC, three technical replicates, parent: est. 100000, read off a plot; for other: HMGN2ΔC / HMGN2 relative to canonical nuc.: parent: est. 1.0, read off a plot.
For assay [4], the target named is GST-HMGN1 (UniProt P05114). The assay is described as above. As to conditions: 0.625 nM GST-HMGN1, three technical replicates, parent: est. 37000, read off a plot.
The next assay addresses GST-HMGN1ΔC. The description is as above. As to conditions: for response (RFU (background subtracted)): 0.625 nM GST-HMGN1ΔC, three technical replicates, parent: est. 110000, read off a plot; for other: HMGN1ΔC / HMGN1 relative to canonical nuc.: parent: est. 1.0, read off a plot.

Chain of UniProt P05114 (P05114 whole entry, looked up): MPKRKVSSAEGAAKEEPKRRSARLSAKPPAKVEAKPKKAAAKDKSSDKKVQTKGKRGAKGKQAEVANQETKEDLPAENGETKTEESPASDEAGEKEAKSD

Take “canonical unmodified nucleosome (from UniProt P04908;O60814;P68431;P62805) H2A:E92K”: the response with GST-HMGN2 [1] stood at 110000 RFU; in the assay with GST-HMGN1 [2] it was 74000 RFU. The response (RFU (background subtracted)) amounted to 25000 with GST-HMGN2 [3], 38000 in the assay with GST-HMGN2ΔC, 22000 with GST-HMGN1 [4] and 66000 in the assay with GST-HMGN1ΔC. Also, in the assay with GST-HMGN2ΔC, the other: HMGN2ΔC / HMGN2 relative to canonical nuc. was 1.2. Further, in the assay with GST-HMGN1ΔC, the other: HMGN1ΔC / HMGN1 relative to canonical nuc. was determined as 1.1.
As to “canonical unmodified nucleosome (from UniProt P04908;O60814;P68431;P62805) H2A:E61A”, the response was 92000 RFU with GST-HMGN2 [1] and 58000 RFU in the assay with GST-HMGN1 [2]. The response (RFU (background subtracted)) was determined as 16000 in the assay with GST-HMGN2 [3], 52000 in the assay with GST-HMGN2ΔC, 11000 with GST-HMGN1 [4] and 66000 with GST-HMGN1ΔC. In addition, the other: HMGN2ΔC / HMGN2 relative to canonical nuc. in the assay with GST-HMGN2ΔC is 2.1. The other: HMGN1ΔC / HMGN1 relative to canonical nuc. with GST-HMGN1ΔC came out at 1.7.
